Source: publication PMC2978106, “The Arabidopsis ABA-Activated Kinase OST1 Phosphorylates the bZIP Transcription Factor ABF3 and Creates a 14-3-3 Binding Site Involved in Its Turnover” (PLoS ONE, 2010)
Where no end group is shown, it is not given here. [ ]: non-standard residue; d: D form. pT = C[C@@H](OP(=O)(O)O)[C@H](N)C(=O)O

Target: T1, Arabidopsis 14-3-3 protein GF14phi fused to GST (Arabidopsis, UniProt P46077 1-267)
T1 construct: 14-3-3 protein GF14phi of Arabidopsis; also called GST-14-3-3; source: E. coli, loaded on glutathione beads
T1 sequence (looked up): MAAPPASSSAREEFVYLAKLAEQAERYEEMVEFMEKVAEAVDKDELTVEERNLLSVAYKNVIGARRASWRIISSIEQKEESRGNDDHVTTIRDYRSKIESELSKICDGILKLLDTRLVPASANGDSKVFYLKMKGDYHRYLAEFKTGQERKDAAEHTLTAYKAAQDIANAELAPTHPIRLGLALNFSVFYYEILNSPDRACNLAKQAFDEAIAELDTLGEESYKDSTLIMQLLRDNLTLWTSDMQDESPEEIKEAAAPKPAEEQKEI
Experiment: pull-down; GST-GF14phi (0.4 nmole) on glutathione beads; 15 µM peptide phosphorylated by OST1 with ATP^γ32; 30 min at 25°C; 20 mM Tris-HCl pH 7.5, 150 mM NaCl, 1 mM CaCl2, 1 mM DTT, 0.05% Tween20; bound peptide counted by Cerenkov counting
Settings: both partners purified

binding result: binds
B1: ABF3T451 peptide phosphorylated by OST1 (peptide)
peptide: KKRQCLRRTL[pT]GPW
modifications: also: phosphothreonine at T451 (T9 or T11 of chain, not fixed by letters)
notes: residues printed before L446 of the ABF3T451 peptide; C-terminal end of ABF3 (C4 domain, LXRXXTXP motif with T451), Arabidopsis thaliana, At4g34000; It holds two threonines (T449, T451); also called pABF3T451; phospho-ABF3T451
